# ± gives the standard error. Variants at the floor of the assay were thinned out.
# B1: glmS ribozyme (parent)
# chain: AUAAAAGCGCCAGAACUACAGAAAUGUAGUUGACGAGGAGGAGGUUUAUCGAAUUUUCGGCGGAUGCCUCCAAA
# Variants of: B1
# Assay: self-cleavage kobs at 2500 uM GlcN6P; higher = faster cleavage; RNA array
# Settings: with glucosamine-6-phosphate
# Outline: (§1)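 Ribozyme variants carrying barcodes were transcribed in situ on sequenced MiSeq chips by E. coli RNA polymerase and tracked at 37 °C with a hybridised Cy3 probe. They were exposed to 40 μM to 10 mM glucosamine-6-phosphate in HEPES/KCl/Mg(OAc)2 buffer. kobs came from exponential decay fits of normalised per-tile medians, and kcat and KM from weighted Michaelis–Menten fits.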
row,Variant,self-cleavage kobs at 2500 uM GlcN6P
1,A12U U54A C58U,4.04e-05 ± 1.6e-05 s⁻¹
2,U31G G40U G60A,< 1e-05 s⁻¹
3,G40U A48G C68U,< 1e-05 s⁻¹
4,A6U A53U G63U,< 1e-05 s⁻¹
5,A6U U54G G66C C67U,< 1e-05 s⁻¹
6,C34G U46C,< 1e-05 s⁻¹
7,A12U G32A G60A,< 1e-05 s⁻¹
8,U31G G37U U56G,< 1e-05 s⁻¹
9,G9A G43C U45G U65C,< 1e-05 s⁻¹
10,G32U A39U G60U,< 1e-05 s⁻¹
11,C34A G35U G59U,< 1e-05 s⁻¹
12,A33C G37A G40C A42C,< 1e-05 s⁻¹
13,A14C U54A G59C C71U,< 1e-05 s⁻¹
14,C10A G40U U47G U49C U55A,< 1e-05 s⁻¹
15,A6U G51C U55A G66A,< 1e-05 s⁻¹
16,C34A G41A C50G,< 1e-05 s⁻¹
17,G9A G44U C68G C70G,< 1e-05 s⁻¹
18,G9C U30A G44U G59U C61U G66C C70U,< 1e-05 s⁻¹
19,G9U G35A G59A C71U,< 1e-05 s⁻¹
20,G7U G32C C68A,< 1e-05 s⁻¹
21,U46G G63U C70A,< 1e-05 s⁻¹
22,A14G A33U G43C G62A,< 1e-05 s⁻¹
23,C11A C34A G60U,< 1e-05 s⁻¹
24,C34U C68U,< 1e-05 s⁻¹

row,Variant,self-cleavage kobs at 2500 uM GlcN6P
1,U45C C61U C70G,< 1e-05 s⁻¹
2,U31C G40U A42U G63C,< 1e-05 s⁻¹
3,G32A U45C,0.000112 ± 3.8e-05 s⁻¹
4,A15U C16G C58A,0.000131 ± 2.8e-05 s⁻¹
5,A39G A48C C71G,4.19e-05 ± 1.9e-05 s⁻¹
6,A52G U54C C70U C71G,7e-05 ± 2.3e-05 s⁻¹
7,C8G G29U U31A,< 1e-05 s⁻¹
8,A33C A36U G37A U47C,< 1e-05 s⁻¹
9,C16U U55G C67G,0.000952 ± 0.00032 s⁻¹
10,A14U A48G C58A A64U C70G,5.92e-05 ± 2.4e-05 s⁻¹
11,A15G G51A U57C,< 1e-05 s⁻¹
12,G9C A15U A42U,< 1e-05 s⁻¹
13,C8U A36C G51U C68A,< 1e-05 s⁻¹
14,G37A G41A C61U,< 1e-05 s⁻¹
15,A14G G32U U45A,0.00147 ± 0.00059 s⁻¹
16,A53G U56C G60U G62A,< 1e-05 s⁻¹
17,G7C G9U G60A,< 1e-05 s⁻¹
18,A12U A15U C50G C70G,0.000215 ± 5.7e-05 s⁻¹
19,G37A C68A C70G,< 1e-05 s⁻¹
20,G44A U49C,< 1e-05 s⁻¹
21,G41A A52C C67G C71A,< 1e-05 s⁻¹
22,A14U U65A U69C,0.000173 ± 4.9e-05 s⁻¹
23,A6G A42C U69G,0.000462 ± 0.00019 s⁻¹
24,C8A G35C A53U G60A,< 1e-05 s⁻¹

row,Variant,self-cleavage kobs at 2500 uM GlcN6P
1,C10A C11U A36C,< 1e-05 s⁻¹
2,G43C U46G A52G U54G G60A,< 1e-05 s⁻¹
3,G32C U55A,4.27e-05 ± 1.5e-05 s⁻¹
4,G13A A39U A64U,< 1e-05 s⁻¹
5,A15G U45C U65G C67U,0.000125 ± 3.7e-05 s⁻¹
6,U46A C58A C61U,< 1e-05 s⁻¹
7,C16A A39U C71A,6.01e-05 ± 1.6e-05 s⁻¹
8,A6U C58G C70A,0.00016 ± 5.2e-05 s⁻¹
9,A15G C58U C70U,3.63e-05 ± 1.4e-05 s⁻¹
10,C8A A42C A64G,< 1e-05 s⁻¹
11,U45G G63U C70G,< 1e-05 s⁻¹
12,A48C U49A U55C,< 1e-05 s⁻¹
13,G7U G32C U54A,< 1e-05 s⁻¹
14,C10A G41A G43C,< 1e-05 s⁻¹
15,G9U A36U C50G U54G U57A C67U,0.000182 ± 3.6e-05 s⁻¹
16,A15G U30C G51U U65C,< 1e-05 s⁻¹
17,G40U G51U G59A,< 1e-05 s⁻¹
18,A36G A48G U69C,< 1e-05 s⁻¹
19,A14C C16A G63U,< 1e-05 s⁻¹
20,A12C U65G U69C,0.000703 ± 0.0002 s⁻¹
21,C11G A15G A39C G40A,< 1e-05 s⁻¹
22,C8A G13A U56C,< 1e-05 s⁻¹
23,A15C G44A C58G G62U,< 1e-05 s⁻¹
24,G7U C8U A52G,< 1e-05 s⁻¹

row,Variant,self-cleavage kobs at 2500 uM GlcN6P
1,G40C U54G G66A,0.00142 ± 0.00027 s⁻¹
2,A6G G9C G63C A64U,< 1e-05 s⁻¹
3,C10G C11U G32A U45C,< 1e-05 s⁻¹
4,G37U U56C G60C C61G,< 1e-05 s⁻¹
5,G7U G62C G63C U69C,< 1e-05 s⁻¹
6,U47C A52G G60C U65G C67A,< 1e-05 s⁻¹
7,U30A G51A C61U,< 1e-05 s⁻¹
8,U47G U54G U57C,0.00011 ± 2.6e-05 s⁻¹
9,A33U A48G U55G,< 1e-05 s⁻¹
10,C16U G43A U49A,< 1e-05 s⁻¹
11,G35U C61U C70U,< 1e-05 s⁻¹
12,G38A A53G G63U,< 1e-05 s⁻¹
13,C8A G32U A42U A48G G51C,< 1e-05 s⁻¹
14,G35C A53U G60U C61U,< 1e-05 s⁻¹
15,C10G C11A U30C A36C G37U C70A C71U,8.35e-05 ± 3.8e-05 s⁻¹
16,U31G A36C G38A G40A,< 1e-05 s⁻¹
17,A6U G29A G41U U65C C68U,< 1e-05 s⁻¹
18,A12G G32U G40U,0.000317 ± 0.00011 s⁻¹
19,C16A G40U U54C C71U,8.78e-05 ± 1.5e-05 s⁻¹
20,C8A G29U G32U,< 1e-05 s⁻¹
21,G35C C68U C71A,< 1e-05 s⁻¹
22,C34U C50G C68A U69A,0.000141 ± 4.9e-05 s⁻¹
23,U45A A48G C67G,8.99e-05 ± 3.1e-05 s⁻¹
24,G40C C70G C71U,7.87e-05 ± 1.6e-05 s⁻¹

row,Variant,self-cleavage kobs at 2500 uM GlcN6P
1,C16G G29A G37A U49G C50U,< 1e-05 s⁻¹
2,G7U G41A A64U,< 1e-05 s⁻¹
3,A12U U57C C71G,0.000242 ± 0.00011 s⁻¹
4,A12G U56A U57C,< 1e-05 s⁻¹
5,A15U C61U G62U,< 1e-05 s⁻¹
6,A15U U31A C70A,6.54e-05 ± 2.7e-05 s⁻¹
7,G41A U47C G51C,< 1e-05 s⁻¹
8,U46A A48U G51C,< 1e-05 s⁻¹
9,G32U G37A G63C,< 1e-05 s⁻¹
10,U31C A39G U49G C70U,2.73e-05 ± 1.4e-05 s⁻¹
11,G35C U46A C67G,< 1e-05 s⁻¹
12,C10U C11A G40A,< 1e-05 s⁻¹
13,G7U C16U G29A G60U,< 1e-05 s⁻¹
14,A53U U54G U55A C71U,0.00523 ± 0.0019 s⁻¹
15,G7C C34A U57C G63C,< 1e-05 s⁻¹
16,G41U U45C U56G,7.1e-05 ± 3.2e-05 s⁻¹
17,G13U G35A C67A,< 1e-05 s⁻¹
18,A52U A53G A64G,5.47e-05 ± 1.7e-05 s⁻¹
19,G13C A15C G32U G44A G59U,< 1e-05 s⁻¹
20,U46C G60A C70G,< 1e-05 s⁻¹
21,A15C U45G U54A,0.000589 ± 0.00012 s⁻¹
22,C11U G60U C68A,< 1e-05 s⁻¹
23,C50G C58A C68G,9.4e-05 ± 1.9e-05 s⁻¹
24,C34U U45G C70A,< 1e-05 s⁻¹

row,Variant,self-cleavage kobs at 2500 uM GlcN6P
1,G13C G29U C50A U56C G62C U69A,0.000141 ± 5.2e-05 s⁻¹
2,G29U G32U A42G C71A,4.56e-05 ± 1.7e-05 s⁻¹
3,C34A G43A U54G,< 1e-05 s⁻¹
4,A12G G44U G59C G60C,< 1e-05 s⁻¹
5,C10A A12U G37U U45A,< 1e-05 s⁻¹
6,C16U U31C A53C U56A C70U,0.000183 ± 4.6e-05 s⁻¹
7,G35C G38C A48U,< 1e-05 s⁻¹
8,C10U C11A A12G G41C,< 1e-05 s⁻¹
9,A14C G29U A39C U46G U47A,< 1e-05 s⁻¹
10,C34U C50G C67A,8.66e-05 ± 2.1e-05 s⁻¹
11,A15C U31G A53C,0.000196 ± 3.5e-05 s⁻¹
12,U30G A42C A52C G60U,< 1e-05 s⁻¹
13,A14G G38C C61U,< 1e-05 s⁻¹
14,G29C A36U A52G,< 1e-05 s⁻¹
15,C34G G37C G60U G63C,< 1e-05 s⁻¹
16,C16A G40U U57A C67U,< 1e-05 s⁻¹
17,U45G U46G A52G,5.59e-05 ± 2.7e-05 s⁻¹
18,G32U G40U U45A,4.53e-05 ± 1.3e-05 s⁻¹
19,A33C A39G G40U U49A,< 1e-05 s⁻¹
20,C8G G51C U54G,< 1e-05 s⁻¹
21,G37U U56C C67A,< 1e-05 s⁻¹
22,C10G G32C A53C G63U A64G,< 1e-05 s⁻¹
23,C8A G32C G40U U55A,< 1e-05 s⁻¹
24,G32A G60A U65C,< 1e-05 s⁻¹

row,Variant,self-cleavage kobs at 2500 uM GlcN6P
1,A6C G13A G38U U57G A64U,< 1e-05 s⁻¹
2,U30G G59C U65G,< 1e-05 s⁻¹
3,G13A G32U A39U,4.61e-05 ± 8.8e-06 s⁻¹
4,G37U G44C U57C C67A,< 1e-05 s⁻¹
5,C11G C16U G51A U65A C67G,8.38e-05 ± 3e-05 s⁻¹
6,U30A A33U C58G U69C,0.000281 ± 8.6e-05 s⁻¹
7,A53G U55G G66U,0.00112 ± 0.00027 s⁻¹
8,C8U C34G U69G,8.61e-05 ± 2.2e-05 s⁻¹
9,U30C U47A U57C,< 1e-05 s⁻¹
10,U49C U55A G62C,< 1e-05 s⁻¹
11,C10U A52U A53U U55C U65G,< 1e-05 s⁻¹
12,C8G A15C A36G,< 1e-05 s⁻¹
13,C10G U46A U56G,< 1e-05 s⁻¹
14,U31A G41U C70U,0.00307 ± 0.00088 s⁻¹
15,A6G G9C A33U C70U,< 1e-05 s⁻¹
16,G29C U30C G32U A52C,< 1e-05 s⁻¹
17,G7U U57C C68G,< 1e-05 s⁻¹
18,C11U G35U C67A C70A,5.48e-05 ± 2.6e-05 s⁻¹

# Variants of: B1
# Assay: self-cleavage kobs at 10000 uM GlcN6P; higher = faster cleavage; RNA array
# Settings: with glucosamine-6-phosphate
# Outline: as §1
row,Variant,self-cleavage kobs at 10000 uM GlcN6P
1,A12U U54A C58U,6.78e-05 ± 1.3e-05 s⁻¹
2,G9A G43C U45G U65C,< 1e-05 s⁻¹
3,A14C U54A G59C C71U,< 1e-05 s⁻¹
4,G32A U45C,9.73e-05 ± 2.3e-05 s⁻¹
5,C8U A36C G51U C68A,< 1e-05 s⁻¹
6,A14U U65A U69C,0.000191 ± 3.3e-05 s⁻¹
7,G32C U55A,9.57e-05 ± 1.5e-05 s⁻¹
8,U30A G51A C61U,< 1e-05 s⁻¹
9,C34U U45G C70A,< 1e-05 s⁻¹
10,C16U U31C A53C U56A C70U,0.000335 ± 8.2e-05 s⁻¹
11,C16A G40U U57A C67U,< 1e-05 s⁻¹
12,A53G U55G G66U,0.00144 ± 0.00029 s⁻¹

# Source: the supplement of paper PMC7125110
